The target of experiment [1] is FGF2-C-His (C-terminal 6xHis tagged 18 kDa human FGF2) (human) (UniProt P09038). Briefly: AlphaScreen or HTRF; C-N orientation, competition: 50 nM FGF2-N-GST and 50 nM FGF2-C-His with increasing competitor, added 30 min before the beads; signal as percent of control without competitor. On the technique in general: Bead proximity is the source of the signal in Alpha formats.

Experiment [2] shares this target. Briefly: AlphaScreen or HTRF; N-N orientation: FGF2-C-His bound to both Ni chelate donor and acceptor beads, increasing FGF2-C-His (0-75.5 µM).
The target is the same in experiment [3]. Description: AlphaScreen or HTRF; N-N orientation, competition: 1 µM FGF2-C-His on Ni chelate donor and acceptor beads with increasing competitor.

In experiment [1], “Tag-less FGF2 (from UniProt P09038 143-288) (natural protein)” registered an IC50 of 180 nM. “FGF2-C-His (C-terminal 6xHis tagged 18 kDa human FGF2) (from UniProt P09038-2 1-155) (natural protein)” displayed an EC50 in experiment [2] of 6350 nM. “platelet factor 4 (PF4) (natural protein)”: the half-maximal inhibitory concentration (IC50) in experiment [3] worked out at 9560 nM; in experiment [1], 265 nM. As for “FGF2-N-GST (N-terminal GST tagged 18 kDa human FGF2) (from UniProt P09038-2 1-155) (natural protein)”, in experiment [3], the 50% inhibitory concentration (IC50) was determined as 620 nM. That is a sub-micromolar value.

A word on the IC50: it is the concentration that inhibits the measured activity by half. What is called EC50 is the concentration that produces a half-maximal response.
